Assay: soluble on expression in E. coli; label from the status in PepcDB or PDB records

Row | Sequence | soluble on expression in E. coli
1 | MADDLGDEWWTQGDNSDVPEVEEETEHAEEKQPIKSTPKKRKVEKQIPDATKKKKATVKKECFITQERSEEKPDNESNKNKKRRKKKKTITDVLTSSKPVPGSPVDLVSLLKTYHSQTRSVIEQEELTLQDSCFLSCNDLTHSLSSYLKEVCPKWAKMQKQHTQTSSVVLLIVCGSALRTIDLIKQLVTFKGQAKVLKLFAKHIKVEEQIKSLSKGVTHIAVGTPGRICALLEKEGLTVQGLRYLVLDWNYRDQKQRRMVDVPEVKGDLLKMMDQGLIQSCREGTVKIGLF | not soluble
2 | MKIAALYDIHGNYPALKEVLKQVKKLSPDLVVLGGDLIAGPMPLETLSLLKHVSTTFKTVGIMGNNDQDIVDIYAKKRVGLSRKATEQLTWIANQLSYKQVSFLRNLLPSISIGNYFFCHAVKNDNTTVFSPQQNKAYIETLFKGVQESYIICGHTHIQFELSLPNKKIINAGSIGMPFSNQFGAQWLWLDDNRIEYKRTIFNQQAAIQLISQTEYPFKNEFLEHHHHHH | not soluble
3 | MSLKRTITPVHEVQTEWVHLHYAESSIFKEVYGFVGTQGTVNLEGVRYTPVGRPSKTLLVFMHPASTLQLLPMPRELARHGAHVLCAGSRYQRNDSALIMENVVVDLGAYIRHAKEVWKYEKVVLVGWSGGGSLSLLYQSQAENPTISTTPAGDPCSIKQAGLMPADAFIFQAAHTGRARMLSEWIDPSVLDENDPDRIDPGLNLYATTCRPPYSADFLAAFRAGQRARLRRRTAWVKETLETLRRKGGQEVERGFVTHRTMADPRFLDPTIEPNDRPIGRCFMGIPETVNNGPVGIARFSTLRAWLSQWSPDDSNADGVTCAKSLTVPFLAIEHSADDAVPQSHVRQVFEAASATDKSMTVLQGATHYFLGQPEMLQQAATICLDWLAERGLHDEGHHHHHH | soluble
4 | MILNIRKMGNSQGVILPKSLLGQIGAVDSLAVTVEKGNIILSCPTVRRGWAEAAAMLVETEQEHFFSEIENEADKEWIW | not soluble
5 | MSEQITFATSDFASNPEPRCPCILLLDVSGSMNGRPINELNAGLVTFRDELLADPLALKRVELGIVTFGPVHVEQPFTSAANFFPPILFAQGDTPMGAAITKALDMVEERKREYRANGISYYRPWIFLITDGAPTDEWQAAANKVFRGEEDKRFAFFSIGVQGADMKTLAQISVRQPLPLQGLQFRELFSWLSSSLRSVSRSTPGTEVVLEAPKGWTSV | soluble
6 | GPGSMERVRIRYVLTGACPPTYSGRVVHDFVALKQPNGCDTTIEMVKERFRSNWPADVKELAESISESGIRVLKAGRVLNDHDSLMRHLTASERKACLVSGDTKVGDTNDEMQKPSVLMHMVIQGNRAPLENSRKEKHKVSSTPEGGNSNEGHEMKKDSCCCVM | soluble
7 | MARQKDTFYFEGFRRSADYACQAAKLLSEVMHDFNPGQLRERMDSMHAIEKSADEVRHDMMDELVTAFITPFDREDIDELGHVLDDVTDSIEGVLNRMYYDNVTDMRDDAVQMSDMVVRATESICELVNELPRFRHSKTLRELVFAINTIETDADHLFIESMRTLHTTCTDPLQVFAWHDVYRHLEQCSDDCERVANTIDSIVMKNSLEHHHHHH | soluble
8 | MFIQTEPTPNPATLKFIPGRSVLDSGTLEFTDASQAARSPLAARLFDIDGVSGVFYGTDFVTVTKDKGEWQHLKPAILGAIMEHYMSGTPILADGKSDGEDGDDDEFYADADAETVEIIKDLIETRVRPAVANDGGDITFRGFKDGIVYLNMRGACAGCPSSTATLQHGIQNLLKHFVPEVVEVRPVT | not soluble
9 | MAHHHHHHMNKNFAQILEDFISDGSRKHRGHGDDGANEENVPHFINQDGSNLFNDDIGKKFEKKNFFKYTEYSLSSLYMSDNQIPLEEDPKFETFINVITKASDVNNEYKWVDDYFKFEVKEEMNILTPRSQDRDFLFRKYLQPNQLKNICLLRKYEQAAISKTPEKNKVDAKIVSEYIVHDSYRQIMKALNFKWSHRIFTKARIFHSKYGNSDHIVILVMRHYKDENFLHPLFHDRALVQIKSYLNDNKHADMTQKNLLNYTEVFKPYVSLRKVDSNFVEQIKDRYYGAF | soluble
10 | IDFRGIEKQGGRVLIDVSDTGIPIDVTQVGKEIVVNFLNTKIPLNLMKRYDVSDFHSPVQIITMQQEGKKVRMTILSKGDYGHFVYQVNKQFMVDVFPLTAEEIR | not soluble
11 | MSLDVCRGMLCGFGAVCEPSVEDPGRASCVCKKNVCPAMVAPVCGSDASTYSNECELQRAQCNQQRRIRLLRQGPCGSRDPCANVTCSFGSTCVPSADGQTASCLCPTTCFGAPDGTVCGSDGVDYPSECQLLRHACANQEHIFKKFDGPCDPCQGSMSDLNHICRVNPRTRHPEMLLRPENCPAQHTPICGDDGVTYENDCVMSRIGAARGLLLQKVRSGQCQTRDQCPETCQFNSVCLSRRGRPHCSCDRVTCDGAYRPVCAQDGHTYDNDCWRQQAECRQQQTIPPKHQGPCDQTPSPCRGAQCAFGATCTVKNGKAVCECQRVCSGGYDPVCGSDGVTYGSVCELESMACTLGREIRVARRGPCDRCGQCRFGSLCEVETGRCVCPSECVESAQPVCGSDGHTYASECELHVHACTHQISLYVASAGHCQTCGETVCTFEGHHHHHH | not soluble
12 | MSALEETQSLCKQVDDICNNGMESVEQCNKLLDQLSKIPMSIEIIQKTNIGIKVNMMRKKVTDDAVAKRAKNIIKDWKNVVDGKSKSQDDGGAPPAKKHRKESVEEAKPEKKKIEAPYKRPEPSSRPEIVAQFASASFPPKHLENDETRLKSAQLLLSALRFGDMPQGTLDPEELAVQIEEKLYSVHRDTNKSYSAAVRSRIFNLRDKKNLALRENVLTGVVRAEKFATMTSEEMASAEIREMRDKFTKEAILEHQMSVQQGTPSDMFKCGKCGKKNCTYTQLQTRSSDEPMTTFVFCLECGNRWKFC | soluble
13 | MKGSRIELGDVTPHNIKQLKRLNQVIFPVSYNDKFYKDVLEVGELAKLAYFNDIAVGAVCCRVDHSQNQKRLYIMTLGCLAPYRRLGIGTKMLNHVLNICEKDGTFDNIYLHVQISNESAIDFYRKFGFEIIETKKNYYKRIEPADAHVLQKNLKVPSGQNADVQKTDN | soluble
14 | GSDLTYAYLVGLFEGDGYFSITKKGKYLTYELGIELSIKDVQLIYKIKKILGIGIVSFRKRNEIEMVALRIRDKNHLKSFILPIFEKYPMFSNKQYDYLRFRNALLSGIISLEDLPDYTRSDEPLNSIESIINTSYFSAWLVGFIEAEGCFSVYKLNKDDDYLIASFDIAQRDGDILISAIRKYLSFTTKVYLDKTNCSKLKVTSVRSVENIIKFLQNAPVKLLGNKKLQYLLWLKQLRKISRYSEKIKIPSNY | soluble
15 | MADSTKAGLKKPAFTKVDQLRPGTSGHNVNVKIVSTKMVLQKGRADGPQARQLRISECIVGDETGVIVFTARNDQVDLMKEGSTVTLRNAKIDMYKGSMRLAVDKWGRVEVTEPASFKVKEDTNMSLIEYELVNVVE | soluble
16 | MVLAERDDRLLGFASFRRTEDFAHYQPQRADAPRAYICEAVVHPAAAGQGLGSALLEAVLAQLADEGIEDVYIDRHEENLASAGMMRKAGFV | soluble
17 | VNSHCSHTFITDNRSPRARRGHAMSTLHKVKAYFGMAPMEDYDDEYYDDRAPSRGYARPRFDDDYGRYDGRDYDDARSDSRGDLRGEPADYPPPGYRGGYADEPRFRPREFDRAEMTRPRFGSWLRNSTRGALAMDPRRMAMMFEDGHPLSKITTLRPKDYSEARTIGERFRDGSPVIMDLVSMDNADAKRLVDFAAGLAFALRGSFDKVATKVFLLSPADVDVSPEERRRIAETGFYAYQ | not soluble
18 | MGSDKIHHHHHHYQQQYKMAVHVTPESENDPEWPSKKKWFDASEWLSTPQYIKINDFYVINTRYVPIGDLNSDQIIFYLKKGINGSEKRFSELSVLSDLDNQEFRELMKDKLSSEYLETQFEKETLTPTIDFFLIYFIYNNKRYEVPIRREYSGNKYHYWVLEGSVKKAGYWHERFPTSYSYRKYLNK | not soluble
19 | MYNLHREKIFMSYNQNKQYLEDNPEIQEKIELYGLNLLNEVISDNEEEIRADYNEANFLHPFWMNYPPLDRGKMPKGDQIPWIEVGEKAVGSKLTRLVSQREDITVREIGLPTGPDERYLLTSPTIYSLTNGFTDSIMMFVDIKSVGPRDSDYDLVLSPNQVSGNGDWAQLEGGIQNNQQTIQGPRSSQIFLPTIPPLYILSDGTIAPVVHLFIKPIYAMRSLTKGDTGQSLYKIKLASVPNGLGLFCNPGYAFDSAYKFLFRPGKDDRTKSLLQKRVRVDLRVLDKIGPRVMTIDMDK | soluble
20 | QPDPPCGGRLNSKDAGYITSPGYPQDYPSHQNCEWIVYAPEPNQKIVLNFNPHFEIEKHDCKYDFIEIRDGDSESADLLGKHCGNIAPPTIISSGSMLYIKFTSDYARQGAGFSLRYEIFKTGSEDCSKNFTSPNGTIESPGFPEKYPHNLDCTFTILAKPKMEIILQFLIFDLEHDPLQVGEGDCKYDWLDIWDGIPHVGPLIGKYCGTKTPSELRSSTGILSLTFHTDMAVAKDGFSARYYLVHQEPLENFQCNVPLGMESGRIANEQISASSTYSDGRWTPQQSRLHGDDNGWTPNLDSNKEYLQVDLRFLTMLTAIATQGAISRETQNGYYVKSYKLEVSTNGEDWMVYRHGKNHKVFQANNDATEVVLNKLHAPLLTRFVRIRPQTWHSGIALRLELFGCRVTDAPCSNMLGMLSGLIADSQISASSTQEYLWSPSAARLVSSRSGWFPRIPQAQPGEEWLQVDLGTPKTVKGVIIQGARGGDSITAVEARAFVRKFKVSYSLNGKDWEYIQDPRTQQPKLFEGNMHYDTPDIRRFDPIPAQYVRVYPERWSPAGIGMRLEVLGCDWTHHHHHH | soluble
21 | MGSDKIHHHHHHMYMYVNDKLVKEEEAIISPFDHGYMYGLGLFETFRLYEGHPFLLDDHFVRLEEGLRALAIDWTYNRSHVLHQLATLCNKNGVRNAYIRWNVSAGPGPIGLYTDTYKEPTVIIYMKSLPQGLSTRKTGTLLELRRNTPEGDRRLKSHHFLNNVLGKREVAKDPQTEGIFLTEDGVLAEGLTSNVFWVKNGVVYTPSVDTGILNGITRQFVLTLCDKEGIPWREGRYPKEALLKADGAFITNSIQEIVTLTSVGQAEFNQDEAVIMSLRKSYQKYCTKLWSKNEIKEGKQDVNNTCK | not soluble
22 | MGSDKIHHHHHHMIIGDKRLDVIHNIKQAANERNFTAKTEIGDPVMSSEEKLALVEGFWQKQDQAKTKFDGTVGHELLQLLTKTISGSTKVNGLGKLKGLPKGGAIVTANHFNQVDALAVNRLAQKAHRRMDIVIEDTNLMLPGFFSYIMNNMGSIPLTQSPNYLGREFIQHLNQAFNQNHWVLIFPEQEMWWNYRKPRKPQRGAYYFAAKCNVPVISTFVEIQDLPKLEKQNEHFYQTRYTVHVLDVLYPDPTKTASENASRLMEEDYKLKVQAYERVYKKKLDYDFTSWDIAGWRGE | not soluble
23 | MKYILFATAGHVDHGKTTLIKTLTGIDTDRLPEEKKRGLSIDIGFAYIDFPDINTRLEIIDVPGHERFIKNAIAGICSASGLILVVDPNEGIMPQTIEHLRVAKSFGIKHGIAVLTKMDKVDEELAHIAEEELIAFLEKEEMNMEIVKVSAVTGQGIEDLKNSIKKLLESINNLNKHKPLRIFVDSAFVVKGYGTVLRGSCFEGEVKEGDKVVVEPIGVISRVRKMQNHGVFVKKAVAGERIALNLPEVDAKKVKRGFLILKPESYEKSNVLIVKTEIDLKPGKIYQVFFGMRETVGKISVIDKGIYLVRLKENAIVRRGDKLVVLDSSGNFLGGAEVLHPKVRVTKKAFIKKNIKDLLENFECYLLKERGPIGLKLEFFKRITGVSPKVANLKPESIEIRGVYYLKGFIENLKLKIKKFLDTELQNAFGVDKEKVKSMFSLNEELLKYILDELKTYKIVNELIIDERKSDLEKNEDFQKLMSILKGGIKEEREIILEGIPKEILTLSIKRKYAHRIGEYLIISDELLKKYINELKELGKTFNVQQAKNKLGLTRKYLIPLLEYLDYLGLTVREGNERRWKR | soluble
